Experimental data from PMC8483785, “The plant nuclear lamina proteins NMCP1 and NMCP2 form a filamentous network with lateral filament associations” (Journal of Experimental Botany, 2021).

B1: His-tagged DcNMCP2 (Daucus carota nuclear matrix constituent protein 2 with an N-terminal 6x His tag) (natural protein, UniProt D2YZU8 1-927, looked up)
chain: MASPRLTVIQSEKTTVTSSRVSRSSMSDDDIWKRLQEAGFDEDSIKRRDKASLIAYITKLEAEIYDHQYQMGLLIMERKEWGSKFERVEAALNSAELMRKHDKNLYLKDLAEAKKREENLKKAIEIERECLANIEKTLHELRAEYAETKVMADSKLVEARSMIEDALKKLSEADAKKHAAESLEAEASRYHSAAERKLHEVEAREDDLRRRATSFKTECDTKEEEILHERRLLNERQKALQQSQQRLVDGQDLLNKRESHIFERTQELNRKEKELEASKLKQEEELQALVEQQANLETKASSLSLREEVITKSELEVKKREEELCVLQEKLEKKESERIQQLLANYEASLSMKKSEFEAELEVKRKSVHDDIENKRRDWELREVDLHHREELILEKEHELEMQSRAVVDKERDLAGRFSLLEEKENRLHAVEKEIESKEALLQKEKEEIISSKLDIQRSLDALEDEKKQLHHAEEKMEAMKSETNELCVLESKLKEEIETIRAQKQELETEADEMKELKLKFEIEWQSIDEKRKELQKEAECINEQRESLELTLKDERNSLKLEKDAMRDEYMRNNESLSRDREDFMKKMEHERSEWFSKIQKERSDYLLAIEVQSKDLEDRLAKRREEIESYLAERERAFEEEKKKELMRMDTLRETLARETEQVNAELNRLDTERREINLDRERRDREWAELNTLIEELKVQRQKLEKQRELMRADKEEILVQIEHLKQLEDLKVVPDRIALTDIQQSDLQPSKRVSARRSLKRQSGLDSGCRAEDNGNASSGNGSVILSPPLSSPFSWLKRCASSLLEQKVSNKKMRHSEEIITPSTIPARLNAPDDEHAVISANQQTPVHAKETTVYIDKIITIREVTSFNDAIVDGNNQNLEEALSQRAEEKLEDDNNIESEKLEKNGEVDPKIMQASLTEQ
notes: Nuclear matrix constituent protein 2 (NMCP2) of Daucus carota; longest ORF of cDNA clone pD2m, amplified from the start codon to the stop codon; the PCR product included a 2808 bp ORF; GenBank AB514509; also called 6x His-tagged DcNMCP2; product of pDC2mN; not shown: His6, N-terminal, kept

Tests used:
[1] = molecular target: His-tagged DcNMCP1 (Daucus carota nuclear matrix constituent protein 1 with an N-terminal 6x His tag) (Daucus carota); experiment: transmission electron microscopy after low-angle rotary metal shadowing; purified protein in urea dialysed against H2O (30-120 min) to induce refolding; sprayed in 40% glycerol on mica, platinum-carbon shadowing; monomers to coiled-coil dimer
[2] = molecular target: the molecule itself; experiment: as above

Molecule	stoichiometry N [1]	stoichiometry N [2]
His-tagged DcNMCP1 (Daucus carota nuclear matrix constituent protein 1 with an N-terminal 6x His tag) (from UniProt A0A166B1A6 1-1119) (natural protein)	2	–
B1	–	2
